Substitutions are numbered along the chain they refer to. In names and notes the source's numbering stands. Like-named read-outs stand apart in the source and are kept apart here. Each block holds one molecule with its values, some of them ahead of it.
What was measured:
[1] = biological target: endogenous PD-L2 (human) (UniProt Q9BQ51); assay: FACS, NCI-H226 cells
[2] = biological target: endogenous PD-L2 (human) (UniProt Q9BQ51); assay: FACS, NCI-H226 cells; remark: listed apart in the source
[3] = biological target: PD-L2 (human) (UniProt Q9BQ51); assay: FACS, CHO-K1 expressing human PD-L2
[4] = biological target: PD-L2 (human) (UniProt Q9BQ51); assay: FACS blocking of PD-1 binding to CHO-K1/hPD-L2; high antigen concentration
[5] = biological target: PD-L2 (human) (UniProt Q9BQ51); assay: as above; remark: listed apart in the source
[6] = biological target: PD-L2 (human) (UniProt Q9BQ51); assay: FACS blocking of hPD-L2 binding to HEK293T-hPD-1; low antigen concentration
[7] = biological target: PD-L2 (human) (UniProt Q9BQ51); assay: blocking of PD-L2 - PD-1 interaction (cell binding); low antigen concentration
[8] = biological target: T1, human PD-L1 (full-length, on cells) (human, UniProt Q9NZQ7 19-290); assay: FACS on HEK293T cells expressing human PD-L1
T1 construct: whole, on cells; HEK293 cells stably expressing full-length human PD-L1
Description: (§1) HEK293T cells expressing human PD-L1 were incubated with chimeric anti-PD-L2 antibodies. Cells were washed and binding was detected with an FITC-labelled anti-rat IgG Ab (Thermo Fisher Scientific). Flow cytometric analyses were performed using a FACSCalibur flow cytometer (Becton Dickinson). PE-labelled anti-human PD-L1 clone MIH1 served as positive control. All peaks overlap except for the positive control in FIG. 7F.
(§2) The ability of anti-PD-L2 antibodies binding to mouse PD-L2, human PD-L1 or cyno PD-L2 was determined by FACS. HEK293 cells stably expressing full-length monkey PD-L2, mouse PD-L2 or human PD-L1 were established, subcloned and verified. For binding assay, 1.5×10⁵ cells in 100 μl of FACSwash buffer were incubated with individual anti-PD-L2 antibodies (0.5 μg/ml) for 30 min. After three times of washing, the cells were re-suspended in FACSwash buffer containing FITC-labelled goat-anti-rat IgG (Thermo Fisher, 1:1000) or APC-labelled goat-anti-ratIgG (Biolegend, Clone Poly4054) at a 1:2000 dilution for 20 min at 4° C., washed three times and subsequently subjected to FACS analysis. FACS data was analysed using FlowJo Software and depicted as histograms including secondary antibody only controls.

[9] = biological target: T2, mouse PD-L2 (full-length, on cells) (mouse, UniProt Q9WUL5 20-247); assay: FACS on HEK293T cells expressing mouse PD-L2
T2 construct: whole, on cells; HEK293 cells stably expressing full-length mouse PD-L2
T2 sequence (looked up): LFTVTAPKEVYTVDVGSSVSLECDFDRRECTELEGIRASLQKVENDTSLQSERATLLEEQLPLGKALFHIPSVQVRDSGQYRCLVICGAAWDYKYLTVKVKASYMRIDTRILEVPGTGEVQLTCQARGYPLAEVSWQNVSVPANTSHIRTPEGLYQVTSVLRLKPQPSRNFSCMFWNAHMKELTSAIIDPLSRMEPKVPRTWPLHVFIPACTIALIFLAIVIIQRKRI
Description: as §1, with “mouse PD-L2” for “human PD-L1”, “anti-mouse PD-L2” for “anti-human PD-L1”, “TY25” for “MIH1”, “6F.” for “7F.”
as §2

[10] = biological target: T3, human PD-L2 (full-length, on cells) (human, UniProt Q9BQ51 20-273); assay: FACS binding on cells expressing human PD-L2 (per the examples)
T3 construct: whole, on cells; CHO-K1 cells stably expressing full-length human PD-L2; also endogenous on NCI-H226 and transfected in Jurkat cells; also called hPD-L2; CHO-K1/hPD-L2
T3 sequence (looked up): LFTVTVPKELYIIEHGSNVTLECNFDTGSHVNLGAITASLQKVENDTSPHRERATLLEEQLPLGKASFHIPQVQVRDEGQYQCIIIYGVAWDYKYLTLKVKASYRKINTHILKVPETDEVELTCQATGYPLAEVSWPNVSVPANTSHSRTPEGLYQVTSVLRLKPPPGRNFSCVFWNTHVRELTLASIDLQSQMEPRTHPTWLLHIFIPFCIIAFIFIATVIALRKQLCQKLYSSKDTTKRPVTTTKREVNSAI

[11] = biological target: T4, human PD-L2 (full-length, on cells) (human, UniProt Q9BQ51 20-273); assay: FACS binding to CHO-K1 cells expressing human PD-L2
T4 chain: T3 sequence (looked up)
In short: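 CHO-K1 cells stably expressing full-length human PD-L2 were stained for 20 min at 4° C with an APC-labelled anti-rat IgG or anti-human IgG Fc suited to the antibody format. Binding was read by flow cytometry on a BD FACSCalibur, and binding EC50 was obtained by non-linear fitting of percentage of maximal binding against concentration in GraphPad Prism.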

[12] = biological target: T3, human PD-L2 (full-length, on cells); assay: FACS on CHO-K1 cells expressing human PD-L2, against the parental antibody
In short: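 Sequence-optimised antibodies expressed in HEK293 cells and their parental antibodies were incubated at different concentrations with CHO-K1 cells expressing human PD-L2. Cells were washed and binding was detected with an APC-labelled anti-human Fc antibody by flow cytometry on a FACSCalibur.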

T1 sequence (Q9NZQ7 19-290): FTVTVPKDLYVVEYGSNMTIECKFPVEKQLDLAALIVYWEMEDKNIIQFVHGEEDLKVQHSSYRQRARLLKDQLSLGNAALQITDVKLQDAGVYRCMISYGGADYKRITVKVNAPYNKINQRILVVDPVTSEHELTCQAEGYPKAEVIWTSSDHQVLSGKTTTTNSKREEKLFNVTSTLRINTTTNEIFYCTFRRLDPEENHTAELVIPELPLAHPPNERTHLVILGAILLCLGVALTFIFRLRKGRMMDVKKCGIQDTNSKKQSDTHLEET

Molecule: MIH18
EC50 [1]: 2.21 nM | EC50 [2]: 2.69 nM | EC50 [3]: 1.59 nM | IC50 [4]: 2.42 nM | IC50 [5]: 1.8 nM | IC50 [6]: 0.104 nM | IC50 [7]: 0.0671 nM

B1: 10A9-D2 N31Q.LC (antibody, V domains shown)
VH: QVQLQESGPGLVKPSETLSLTCAVSGGSISSSYWWSWVRQPPGKGLEWVGEVFHVGVTNYNPSLKSRVTISVDKSKNQFSLKLTSVTAADTAVYYCARVTGTTGYYHGLDVWGQGTTVTVFS
VL: DIQMTQSPSSLSASVGDRVTITCRASQGIRQDLGWYQQKPGKVPKRLIYAASSLQSGIPSRFSGSGSGTEFTLTISSLQPEDFATYYCLQHNNYPRTFGQGTKVEIK
notes: Optimized variant of 10A9-D2
binding result [8]: no binding | binding result [9]: no binding | binding result [10]: binds | EC50 [11]: 0.32 nM

B2: 19B3-B3 M23K.M63L.HC (antibody, V domains shown)
VH: QVQLVQSGAEVKKPGASVKVSCKASGYTFTNYAIHWVRQAPGQRLEWMGWINTGLGKPKYSQLFQDRVTITRDTSASTASMELSGLRSDDTAVYYCARVGWELYFDYWGQGTLVTVSS
VL: DIQMTQSPSTLSASVGDRVTITCRASQSISSLLAWYQQKPGKAPKLLIYKASSLESGVPSRFSGSGSGTEFTLTISSLQPDDFATYFCQQYNSYWTFGQGTKVEIK
notes: Optimized variant of 19B3-B3
binding result [8]: no binding | binding result [9]: no binding | binding result [10]: binds | EC50 [11]: 0.38 nM

More lines, now with the values ahead:

binding result [8]: no binding | binding result [9]: no binding | binding result [12]: binds
B3: 19B3-B3 N92Y.LC.M23K.M63L.HC (antibody, V domains shown)
VH: B2 VH
VL: B2 VL with N92Y
notes: Optimized variant of 19B3-B3

binding result [8]: no binding | binding result [9]: no binding | binding result [12]: binds
B4: 19B3-B3 N92Q.LC.M23K.M63L.HC (antibody, V domains shown)
VH: B2 VH
VL: B2 VL with N92Q
notes: Optimized variant of 19B3-B3
